The results in this text go back to US20080089860A1, “Therapeutic compositions and methods useful in treating cancer” (priority 2006, published 2008).

The target in data set [1] is T1, PRL-3 (Homo sapiens, UniProt O75365).
T1 construct: made in house; host or cells: E. coli DH5a
Nature of the data set: In vitro PTPase assay, recombinant PRL-3. Format: biochemical. Particulars: DiFMUP substrate. The source says:
Sodium stibogluconate, suramin, sodium orthovanadate and GST fusion protein of SHP-1 have been described previously (Pathak et al., J. Imumol. 167, 3391 (2001)). Meglumine antimonate was obtained from Aventis. cDNAs of human PRL-1, PRL-2 and PRL-3 coding region were derived by RT-PCR from H9 cells (Safai, et al., Lancet 1, 1438 (1984)) and inserted in frame into the pGEX vector. cDNA of PRL-1R86 was generated by recombinant DNA technique using PRL-1 cDNA as template following established procedures (Jiao, et al., Mol. Cell. Biol. 16, 6985 (1996)). GST fusion proteins of the PRL phosphatases were prepared from DH5a bacteria transformed with the pGEX fusion protein constructs as described previously (Yi, et al., Mol. Cell. Biol. 12, 836 (1992)). cDNAs encoding the PRLs tagged at the N-termini with the Flag epitope (Castrucci, et al., J. Virol. 66, 4647 (1992)) were generated via recombinant DNA technique, sequenced to confirm their identities and cloned into the pBabepuro vector (Yang, et al., Blood 91, 3746 (1998)). Anti-Flag monoclonal antibody (M2, Sigma) was purchased from a commercial source. A synthetic phosphotyrosine peptide (Arg-Arg-Leu-Ile-Glu-Asp-Ala-Gle-Tyr-Al- -a-Ala-Arg-Gly (SEQ ID NO: 3), wherein the tyrosine is phosphorylated; UBI) and DiFMUP (6,8-difluoro-4-methylumbelliferyl phosphate, Molecular Probes) were purchased as substrates for PTPase assays.
(§1) In vitro PTPase assays were used to determine the effects of compounds on recombinant PTPases, following established procedures using a synthetic phosphotyrosine peptide or DiFMUP as the substrate (Pathak et al., J. Imumol. 167, 3391 (2001)). Briefly, individual PTPases (0.1 µg/reaction) in 50 µL of PTPase buffer (50 mM Tris, pH 7.4) were incubated at 22° C. for 10 minutes or as indicated in the absence or presence of inhibitory compounds. Substrates (0.2 mM phosphotyrosine peptide) were then added and allowed to react at 22° C. for 18 hrs. PTPase activity of individual reactions was measured by adding 100 µL of malachite green solution (UBI) and then quantifying the amounts of free phosphate cleaved by the PTPase from the peptide substrate by spectrometry (OD660 nm). PTPase assays using DiFMUP as a substrate were conducted following a previously described procedure (Matter, et al., Biochem. Biophys. Res. Comm. 283, 1061 (2001)). Relative PTPase activities were calculated based on the formula: (PTPase activity in the presence of an inhibitory compound/PTPase activity in the absence of the compound)× 100%. To assess the reversibility of PTPase inhibition, GST fusion proteins of the PTPases bound on glutathione beads (Pharmacia) were pre-incubated with cold Tris buffer (50 mM Tris, pH 7.0) or Tris buffer containing the inhibitor at 4° C. for 30 minutes. The beads were then washed three times in cold Tris buffer or not washed prior to subjecting to in vitro PTPase assays.

In data set [2] the target is T2, SHP-1 (Mus musculus, UniProt P29351).
T2 construct: made in house
Nature of the data set: In vitro PTPase assay, GST/SHP-1. Format: biochemical. How it is done:
In vitro PTPase activities were measured using the commercial protein tyrosine phosphatase assay kit (Upstate Biotechnology, Inc. (“UBI”)) following established procedure known to one of skill in the art. […] Briefly, 0.01 µg of GST/PTPase fusion proteins was incubated in 50 µl of Tris buffer (10 mM Tris, pH 7.4) containing different concentrations of inhibitors or chemicals (0-1,000 µg/ml) at 22° […] 100 µl of Malachite Green solution was added and incubated for 5 minutes, and the absorbance at 660 nm was measured after 5 minutes.
To assess the reversibility of inhibition of SHP-1 by PTPase inhibitors, GST/SHP-1 fusion protein bound on glutathione beads were pre-incubated in cold Tris buffer or Tris buffer containing the PTPase inhibitors at 4° C. for 30 minutes. The beads were then either subjected to in vitro PTPase assays or washed 3 times in Tris buffer then subjected to in vitro PTPase assays.
as §1, with “Briefly,” for “In vitro PTPase assays were used to determine the effects of compounds on recombinant PTPases, following established procedures using a synthetic phosphotyrosine peptide or DiFMUP as the substrate (Pathak et al., J. Imumol. 167, 3391 (2001)). Briefly,”, “PTPase assays using DiFMUP as a substrate were conducted following a previously described procedure (Matter, et al., Biochem. Biophys. Res. Comm. 283, 1061 (2001)).” left out

The target in data set [3] is T3, MKP1 (Homo sapiens, UniProt P28562).
T3 construct: made in house; host or cells: E. coli DH5a
T3 sequence (P28562 13-367 limits assumed): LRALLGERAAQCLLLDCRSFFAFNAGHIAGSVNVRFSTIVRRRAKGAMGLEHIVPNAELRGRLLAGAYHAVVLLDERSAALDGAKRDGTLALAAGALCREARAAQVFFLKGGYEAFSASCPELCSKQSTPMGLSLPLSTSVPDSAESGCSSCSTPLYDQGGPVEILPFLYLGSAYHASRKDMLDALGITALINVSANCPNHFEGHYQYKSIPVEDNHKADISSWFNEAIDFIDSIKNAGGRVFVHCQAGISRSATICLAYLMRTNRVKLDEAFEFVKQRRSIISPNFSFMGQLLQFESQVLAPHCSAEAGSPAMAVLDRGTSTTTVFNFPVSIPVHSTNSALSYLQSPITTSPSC
As to the kind of experiment: In vitro PTPase assay, GST/MKP1. It is filed as biochemical. The following applies: section VII comparison. How it is done: In vitro PTPase activities were measured using the commercial protein tyrosine phosphatase assay kit (Upstate Biotechnology, Inc. (“UBI”)) following established procedure known to one of skill in the art. This assay measures the in vitro dephosphorylation of a synthetic phosphotyrosine peptide of the sequence Arg-Arg-Leu-Ile-Glu-Asp-Ala-Gle-T- -yr-Ala-Ala-Arg-Gly, wherein the tyrosine is phosphorylated (SEQ ID NO: 3). Briefly, 0.01 µg of GST/PTPase fusion proteins was incubated in 50 µl of Tris buffer (10 mM Tris, pH 7.4) containing different concentrations of inhibitors or chemicals (0-1,000 µg/ml) at 22° C. for 10 minutes, followed by addition of 0.2 mM of the phosphotyrosine peptide and incubation at 22° C. for 18 hours. 100 µl of Malachite Green solution was added and incubated for 5 minutes, and the absorbance at 660 nm was measured after 5 minutes.
(§2) In vitro PTPase assays were used to determine the effects of levamisole (Sigma), pentamidine (American Pharmaceutical Partners, Inc.), and ketoconazole (Sigma) on recombinant PTPases, following established procedures (Pathak et al., J. Imumol. 167, 3391 (2001); Pathak et al., Leukemia 16, 2285 (2002), Yi et al., J. Immunol. 169, 5978 (2002)) using a synthetic phosphotyrosine peptide or DiFMUP as the substrate as detailed above in section I.A.2.

In data set [4] the test system is GSTm8. Nature of the data set: In vitro PTPase assay, GSTm8. Format: biochemical. The following applies: 3-4 μg/ml or 10-100 μg/ml.
Excerpt: as §2

Data set [5] has as its system T4, synthetic phosphotyrosine peptide Arg-Arg-Leu-Ile-Glu-Asp-Ala-Gle-Tyr-Ala-Ala-Arg-Gly, wherein the tyrosine is phosphorylated.
T4 sequence: RRLIEDAEYAARG

For data set [6], the target named is T5, synthetic phosphotyrosine peptide Arg-Arg-Leu-Ile-Glu-Asp-Ala-Gle-Tyr-Ala-Ala-Arg-Gly, wherein the tyrosine is phosphorylated.
T5 chain: RRLIEDAEYAARG

T2 sequence (P29351 whole entry): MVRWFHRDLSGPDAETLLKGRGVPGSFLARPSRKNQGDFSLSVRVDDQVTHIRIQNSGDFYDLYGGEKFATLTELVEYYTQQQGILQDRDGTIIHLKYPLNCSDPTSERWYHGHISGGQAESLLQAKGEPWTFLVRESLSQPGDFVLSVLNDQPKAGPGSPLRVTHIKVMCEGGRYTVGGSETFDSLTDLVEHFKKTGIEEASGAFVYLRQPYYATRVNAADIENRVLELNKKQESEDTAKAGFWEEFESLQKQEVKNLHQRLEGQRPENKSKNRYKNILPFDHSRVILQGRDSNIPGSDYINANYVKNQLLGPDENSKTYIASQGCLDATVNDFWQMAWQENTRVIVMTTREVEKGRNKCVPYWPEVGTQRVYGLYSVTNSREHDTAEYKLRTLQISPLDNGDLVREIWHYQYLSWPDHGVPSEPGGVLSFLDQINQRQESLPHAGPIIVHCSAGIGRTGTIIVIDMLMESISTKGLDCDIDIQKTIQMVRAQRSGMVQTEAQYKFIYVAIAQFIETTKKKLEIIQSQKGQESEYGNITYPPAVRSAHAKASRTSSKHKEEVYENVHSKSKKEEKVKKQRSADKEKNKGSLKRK
T1 sequence (O75365 whole entry): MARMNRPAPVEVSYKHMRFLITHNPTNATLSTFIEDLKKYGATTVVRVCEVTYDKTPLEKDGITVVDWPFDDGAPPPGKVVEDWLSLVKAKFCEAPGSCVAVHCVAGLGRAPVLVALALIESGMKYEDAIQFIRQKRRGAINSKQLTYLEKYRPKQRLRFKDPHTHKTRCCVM

`Cc1ccc(C(=O)Nc2ccc(S(=O)(=O)O)c3cc(S(=O)(=O)O)cc(S(=O)(=O)O)c23)cc1NC(=O)c1cccc(NC(=O)Nc2cccc(C(=O)Nc3cc(C(=O)Nc4ccc(S(=O)(=O)O)c5cc(S(=O)(=O)O)cc(S(=O)(=O)O)c45)ccc3C)c2)c1` [Suramin]: the “inhibition of PRL-3 compared with sodium stibogluconate” value in data set [1] is listed as “less effective”. Besides, in data set [2] (comparable conditions), the “inhibition of SHP-1 compared with sodium stibogluconate” value was “less effective”. Moreover, in data set [2] (pre-incubated with inhibitor, beads washed), the “inhibition of GST/SHP-1 after washing (reversibility)” value is listed as “almost completely removed by the washing process”.

As for `c1ccc([C@H]2CN3CCSC3=N2)cc1` [levamisole], the “inhibition of MKP1” value in data set [3] is reported as “substantial inhibition”. Besides, the “inhibitory activity against SHP-1” value in data set [2] (3-4 μg/ml or 10-100 μg/ml) is given as “no obvious inhibitory activity”. Further, the “inhibitory activity against GSTm8” value in data set [4] is on record as “no obvious inhibitory activity”.

With `[Na+].[Na+].[Na+].[O]=[V]([O-])([O-])[O-]` [sodium orthovanadate], the “inhibition of PRL-3 compared with sodium stibogluconate” value in data set [1] is reported as “less effective”.

Take GST fusion protein of SHP-1: in data set [5], the “PTPase activity against the peptide substrate (660 nm absorbance, malachite green)” value is listed as 660 nm absorbance approximately 0.6 above background (0.03).

Turning to GST fusion protein of SHP-2, the “PTPase activity against the peptide substrate (660 nm absorbance, malachite green)” value in data set [5] is reported as 660 nm absorbance approximately 0.6 above background (0.03).

On to “GST fusion protein of mitogen-activated protein kinase phosphatase 1 (MKP1)”, for which the “PTPase activity against the peptide substrate (660 nm absorbance, malachite green)” value in data set [5] is reported as 660 nm absorbance approximately 0.6 above background (0.03).

As to “GST fusion protein of protein tyrosine phosphatase 1B (PTP1B)”, the “PTPase activity against the peptide substrate (660 nm absorbance, malachite green)” value in data set [5] was 660 nm absorbance approximately 0.6 above background (0.03).

B1: GST fusion protein of PRL-1R86 (protein)
chain: MARMNRPAPVEVTYKNMRFLITHNPTNATLNKFIEELKKYGVTTIVRVCEATYDTTLVEKEGIHVLDWPFDDGAPPSNQIVDDWLRLVKIKFREEPGCCIAVHCVAGLGRAPVLVALALIEGGMKYEDAVQFIRQKRRGAFNSKQLLYLEKYRPKMRLRFKDSNGHRNNCCIQ
B1: the “in vitro PTPase activity” value in data set [6] is given as “showed in vitro PTPase activity similar to that of wild type PRL-1”.

B2: Flag-PRL-1 (protein)
chain: MARMNRPAPVEVTYKNMRFLITHNPTNATLNKFIEELKKYGVTTIVRVCEATYDTTLVEKEGIHVLDWPFDDGAPPSNQIVDDWLSLVKIKFREEPGCCIAVHCVAGLGRAPVLVALALIEGGMKYEDAVQFIRQKRRGAFNSKQLLYLEKYRPKMRLRFKDSNGHRNNCCIQ
With B2, in data set [6], the “PTPase activity of anti-Flag immunocomplexes (NIH3T3 transfectants)” value is recorded as “a markedly higher PTPase activity (about 23 folds) over that of control transfectants” and the “phosphatase activity of anti-Flag immunocomplexes (WM9 transfectants)” value is given as “showed phosphatase activities well above the background activity of the vector control cells”.

B3: Flag-PRL-1R86 (protein)
chain: MARMNRPAPVEVTYKNMRFLITHNPTNATLNKFIEELKKYGVTTIVRVCEATYDTTLVEKEGIHVLDWPFDDGAPPSNQIVDDWLRLVKIKFREEPGCCIAVHCVAGLGRAPVLVALALIEGGMKYEDAVQFIRQKRRGAFNSKQLLYLEKYRPKMRLRFKDSNGHRNNCCIQ
As to B3, in data set [6], the “phosphatase activity of anti-Flag immunocomplexes (WM9 transfectants)” value is on record as “showed phosphatase activities well above the background activity of the vector control cells”.
